Laboratory results: paper PMC12421950, “Structural insights into manganese-dependent arylsulfatase from Enterococcus faecium and its catalytic promiscuity” (mBio, 2025)

Legend:
[1] = target: arylsulfatase from Enterococcus faecium (EfAS), wild type (Enterococcus faecium); assay: crystal structure; vapor diffusion at 17°C, 0.1 M sodium cacodylate pH 6.4, 8% PEG3350, 0.2 M MnCl2; space group P42(1)2, two molecules in the asymmetric unit, tetramer through symmetry-related operations
EfAS = target: T1, EfAS (Enterococcus faecium, UniProt I3U6E8); assay: p-nitrophenol colorimetric assay at […] nm, Lineweaver-Burk; assay type: biochemical; details: read-out: Kinetic parameters / Km (×10^-3 M); 50 mM sodium acetate pH 4.5, 1 mM MnCl2, 37 °C
T1 construct: gene HMPREF0351_12962; synthetic codon-optimised gene in pSMT3, E. coli BL21(DE3); His6-SUMO tag removed by Ulp1; homotetramer, 323 kDa by SEC; residues 9-488 modelled; C61 partly oxidised to formylglycine
T1 sequence (I3U6E8 1-491 limits assumed): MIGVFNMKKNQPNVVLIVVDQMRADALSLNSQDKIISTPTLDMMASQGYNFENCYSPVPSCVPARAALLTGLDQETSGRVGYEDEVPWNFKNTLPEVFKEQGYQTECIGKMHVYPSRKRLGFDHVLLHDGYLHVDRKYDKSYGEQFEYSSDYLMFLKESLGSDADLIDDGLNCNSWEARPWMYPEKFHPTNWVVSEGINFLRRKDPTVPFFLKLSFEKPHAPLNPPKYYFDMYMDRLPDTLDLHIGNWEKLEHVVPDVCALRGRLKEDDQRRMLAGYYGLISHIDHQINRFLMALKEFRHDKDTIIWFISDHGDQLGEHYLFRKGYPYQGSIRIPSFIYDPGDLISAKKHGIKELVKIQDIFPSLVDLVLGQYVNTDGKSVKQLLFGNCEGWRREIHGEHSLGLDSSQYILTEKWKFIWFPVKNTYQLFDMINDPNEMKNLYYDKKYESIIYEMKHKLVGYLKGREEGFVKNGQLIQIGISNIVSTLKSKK

purified protein [2] = substrate: O=[N+]([O-])c1ccc(OS(=O)(=O)O)cc1; assay: purified protein; assay type: biochemical, Enterococcus faecium; details: 50 mM sodium acetate pH 4.5, 1 mM MnCl2, 37 °C
purified protein [3] = substrate: O=[N+]([O-])c1ccc(OP(=O)(O)O)cc1; assay: purified protein; assay type: biochemical, Enterococcus faecium; details: 50 mM sodium acetate pH 4.5, 1 mM MnCl2, 37 °C

Molecule: arylsulfatase from Enterococcus faecium (EfAS), wild type (enzyme)
- stoichiometry N [1]: 4

Molecule: O=[N+]([O-])c1ccc(OP(=O)(O)c2ccccc2)cc1 [p-nitrophenyl phenylphosphonate]
- Km (EfAS): 1410 µM

B1: EfAS (Enterococcus faecium DO) (protein)
chain: T1 sequence (I3U6E8 1-491 limits assumed)
notes: synthetic codon-optimised gene in pSMT3, E. coli BL21(DE3); His6-SUMO tag removed by Ulp1; homotetramer, 323 kDa by SEC; residues 9-488 modelled; C61 partly oxidised to formylglycine
- Km (purified protein [2]): 677 µM
- kcat (purified protein [2]): 0.0831 s⁻¹
- kcat/Km (purified protein [2]): 123 M⁻¹ s⁻¹
- Km (purified protein [3]): 1285 µM
- kcat (purified protein [3]): 0.0318 s⁻¹
- kcat/Km (purified protein [3]): 24.8 M⁻¹ s⁻¹
